Assay results published in patent US20220064327A1 (KYMAB, published 2022).
Substitutions are numbered along the chain they refer to.

How the values were obtained:
[1] = biological target: T1, human factor IX (human, UniProt P00740 47-461, 12 glutamic acid residues of the GLA domain are post-translationally γ-carboxylated); experiment: SPR as in Example 10, human FIX as analyte
T1 construct: Zymogen used as analyte in SPR, reconstituted at 1 mg/ml; also called FIX; Human FIX (MW ~55 KDa)
Experimental: (§1) Monospecific antibodies (referred as ligand) which had been purified on Protein A were captured onto the anti-human IgG Fc CM4 surface at approximately 2 μg/ml. The ligands were injected for 60 seconds at 10 μl/min in all the active channels of all 8 flow channels. The run was performed at 25° C. using neutral pH HBS-P 1X+CaCl₂ 2.5 mM as running buffer.
(§2) Human FIX (MW ˜55 KDa) or human FX (MW ˜58 KDa) was reconstituted at 1 mg/ml in the running buffer and used as analyte. The analyte was injected in multiple cycle kinetics (MCK) mode at 3 concentrations (1.5 μM, 500 nM and 166.7 nM) with 120 seconds association phase and 200 seconds (for FIX) or 300 seconds (for FX) dissociation phase, at flow rate […] in both active and reference channels. Three injections of 10 mM Glycine pH 1.5 for 60 sec. at 10 μl/min were used for the regeneration phase.
(§3) Affinity and kinetics of purified anti-FIX and anti-FX antibodies for binding to their respective antigens was determined by SPR as described in Example 10 above.

[2] = biological target: T1, human factor IX; experiment: SPR, IgG captured on anti-human IgG Fc, human FIX as analyte
Experimental: (§4) SPR was used to determine the binding affinity (KD) to FIX or FX respectively, the kinetic constants on-rate (kₒₙ) and off-rate (koff). Analyses was performed using a Biacore 8K (GE Healthcare) system.
as §1, §2

[3] = biological target: T2, human factor X (human, UniProt P00742 41-179; P00742 183-488); experiment: SPR, IgG captured on anti-human IgG Fc, human FX as analyte
T2 construct: Zymogen used as analyte in SPR; also called FX; Human FX (MW ~58 KDa)
T2 sequence (P00742 41-179, chain 1 of 2): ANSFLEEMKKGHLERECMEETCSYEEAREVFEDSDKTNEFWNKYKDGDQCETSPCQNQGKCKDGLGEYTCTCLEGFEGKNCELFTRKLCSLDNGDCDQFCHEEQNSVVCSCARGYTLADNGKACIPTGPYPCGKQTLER
T2 sequence (P00742 183-488, chain 2 of 2): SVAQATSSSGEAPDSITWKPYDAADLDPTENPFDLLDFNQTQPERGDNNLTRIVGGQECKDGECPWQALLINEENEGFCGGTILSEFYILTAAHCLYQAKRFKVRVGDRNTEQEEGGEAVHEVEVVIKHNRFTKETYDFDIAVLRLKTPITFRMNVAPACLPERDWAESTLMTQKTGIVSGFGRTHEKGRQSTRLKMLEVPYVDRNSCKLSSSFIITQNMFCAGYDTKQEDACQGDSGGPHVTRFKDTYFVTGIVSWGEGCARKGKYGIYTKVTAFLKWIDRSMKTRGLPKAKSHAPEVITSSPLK
Experimental: as §4, §1, §2

[4] = biological target: T2, human factor X; experiment: SPR as in Example 10, human FX as analyte
[5] = biological target: T2, human factor X; experiment: SPR as in Example 10, human FX as analyte; remark: listed apart in the source
Experimental: as §1, §2, §3

[6] = biological target: T1, human factor IX; experiment: SPR, IgG captured on anti-human IgG Fc, human FIX as analyte; remark: listed apart in the source

T1 sequence (P00740 47-461 limits assumed): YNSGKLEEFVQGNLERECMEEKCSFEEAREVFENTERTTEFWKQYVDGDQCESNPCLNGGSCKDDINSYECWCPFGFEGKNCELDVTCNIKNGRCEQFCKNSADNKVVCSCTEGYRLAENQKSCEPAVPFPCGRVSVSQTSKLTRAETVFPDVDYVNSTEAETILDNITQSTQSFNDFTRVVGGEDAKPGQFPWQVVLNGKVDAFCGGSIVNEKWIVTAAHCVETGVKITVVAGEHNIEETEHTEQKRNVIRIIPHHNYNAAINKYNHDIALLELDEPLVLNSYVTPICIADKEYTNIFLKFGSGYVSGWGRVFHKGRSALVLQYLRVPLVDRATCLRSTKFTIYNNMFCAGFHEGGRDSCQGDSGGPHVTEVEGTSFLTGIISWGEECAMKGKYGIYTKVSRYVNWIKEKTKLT

B1: NINA-0128 (antibody, V domains shown)
VH: EVQLVESGGGFVQPGGSLRLSCAVSGFTFNSYWMSWVRQAPGKGLEWVANINQDGSEKFYVASVKGRFTMSRDNAKKSVYVQMNSLRAEDTAVYYCAREGYSSSSYYGMDVWGQGTTVTVSS
VL: SYVLTQPPSVSVAPGETARITCGGDNIGRKSVYWYQQKSGQAPVLVIYYDSDRPSGIPERFSGSNSGNTATLTISRVEAGDEADYYCQVWDGSSDHWVFGGGTKLTVL
Kd [1]: 0.359 µM
koff [1]: 0.0492 s⁻¹
kon [1]: 137000 M⁻¹ s⁻¹
Kd [2]: 0.198 µM
koff [2]: 0.0576 s⁻¹
kon [2]: 292000 M⁻¹ s⁻¹

B2: TINA-0215.0128 (antibody, V domains shown)
VH: QVQLVQSGAEVKKPGASVKVSCKASRYSFTSYYMHWVRQAPGQGLEWMGIINPKSGSTSYAQKFQGRVTMTRDTSTSTVYMELSSLRSEDTAVYYCARDGYGSSSRCLQLWGQGTLVTVSS
VL: B1 VL
notes: Monospecific IgG4PE
Kd [3]: 1.15 µM
koff [3]: 0.0787 s⁻¹
kon [3]: 68400 M⁻¹ s⁻¹

B3: NINA-1091.0128 (antibody, V domains shown)
VH: B1 VH with E57R, S103I
VL: B1 VL
Kd [1]: 0.218 µM
koff [1]: 0.0352 s⁻¹
kon [1]: 161000 M⁻¹ s⁻¹

B4: NINA-0436.0128 (antibody, V domains shown)
VH: B1 VH with S104I
VL: B1 VL
Kd [1]: 0.359 µM
koff [1]: 0.0523 s⁻¹
kon [1]: 146000 M⁻¹ s⁻¹
Kd [2]: 0.184 µM
koff [2]: 0.0453 s⁻¹
kon [2]: 246000 M⁻¹ s⁻¹

B5: NINA-0444.0128 (antibody, V domains shown)
VH: B1 VH with S104T
VL: B1 VL
Kd [2]: 0.206 µM
koff [2]: 0.0445 s⁻¹
kon [2]: 216000 M⁻¹ s⁻¹

B6: NINA-0440.0128 (antibody, V domains shown)
VH: B1 VH with S104N
VL: B1 VL
Kd [2]: 0.289 µM
koff [2]: 0.0535 s⁻¹
kon [2]: 185000 M⁻¹ s⁻¹

B7: TINA-0206.0128 (antibody, V domains shown)
VH: B2 VH with S57D, E82D, S105A
VL: B1 VL
notes: Monospecific IgG4PE
Kd [3]: 0.992 µM
koff [3]: 0.0667 s⁻¹
kon [3]: 67200 M⁻¹ s⁻¹

B8: NINA-1280.0128 (antibody, V domains shown)
VH: B1 VH with T28R, E57R, S104I, S105K
VL: B1 VL
Kd [1]: 0.0523 µM
koff [1]: 0.01 s⁻¹
kon [1]: 192000 M⁻¹ s⁻¹

B9: TINA-0214.0128 (antibody, V domains shown)
VH: B2 VH with P14T, K23Q
VL: B1 VL
notes: Monospecific IgG4PE
Kd [3]: 0.466 µM
koff [3]: 0.0558 s⁻¹
kon [3]: 120000 M⁻¹ s⁻¹

B10: TINA-0209.0128 (antibody, V domains shown)
VH: B2 VH with K12Q, M34L, S55T, S57D, S77T, S105A
VL: B1 VL
notes: Monospecific IgG4PE
Kd [3]: 1.15 µM
koff [3]: 0.0679 s⁻¹
kon [3]: 59000 M⁻¹ s⁻¹

B11: TINA-0638.0128 (antibody, V domains shown)
VH: B2 VH with V5I, Q109M
VL: B1 VL
notes: Monospecific IgG; position is IMGT numbering, not a count on the entry
Kd [4]: 0.3 to 3 µM
Kd [5]: 0.333 µM
koff [5]: 0.0232 s⁻¹
kon [5]: 69900 M⁻¹ s⁻¹

B12: TINA-0210.0128 (antibody, V domains shown)
VH: B2 VH with S84N
VL: B1 VL
notes: Monospecific IgG4PE
Kd [3]: 0.974 µM
koff [3]: 0.0744 s⁻¹
kon [3]: 76400 M⁻¹ s⁻¹

B13: TINA-0200.0128 (antibody, V domains shown)
VH: B2 VH with M34L, S55T, S57D, S77T, S105A
VL: B1 VL
notes: Monospecific IgG4PE
Kd [4]: 0.3 to 3 µM
Kd [3]: 1.13 µM
koff [3]: 0.115 s⁻¹
kon [3]: 103000 M⁻¹ s⁻¹
Kd [5]: 2.52 µM
koff [5]: 0.112 s⁻¹
kon [5]: 44300 M⁻¹ s⁻¹

B14: TINA-0211.0128 (antibody, V domains shown)
VH: B2 VH with E82D
VL: B1 VL
notes: Monospecific IgG4PE
Kd [3]: 0.68 µM
koff [3]: 0.0447 s⁻¹
kon [3]: 65700 M⁻¹ s⁻¹

B15: NINA-0445.0128 (antibody, V domains shown)
VH: B1 VH with S104V
VL: B1 VL
Kd [2]: 0.267 µM
koff [2]: 0.0544 s⁻¹
kon [2]: 204000 M⁻¹ s⁻¹

B16: TINA-0207.0128 (antibody, V domains shown)
VH: B2 VH with P14T
VL: B1 VL
notes: Monospecific IgG4PE
Kd [3]: 0.847 µM
koff [3]: 0.141 s⁻¹
kon [3]: 166000 M⁻¹ s⁻¹

B17: TINA-0201.0128 (antibody, V domains shown)
VH: B2 VH with V5I
VL: B1 VL
notes: Monospecific IgG4PE
Kd [3]: 0.579 µM
koff [3]: 0.0502 s⁻¹
kon [3]: 86700 M⁻¹ s⁻¹
Kd [5]: 0.816 µM
koff [5]: 0.0482 s⁻¹
kon [5]: 59000 M⁻¹ s⁻¹

B18: TINA-0204.0128 (antibody, V domains shown)
VH: B2 VH with K12Q, P14T
VL: B1 VL
notes: Monospecific IgG4PE
Kd [3]: 0.718 µM
koff [3]: 0.0785 s⁻¹
kon [3]: 109000 M⁻¹ s⁻¹

B19: TINA-0202.0128 (antibody, V domains shown)
VH: B2 VH with V5I, K12Q
VL: B1 VL
notes: Monospecific IgG4PE
Kd [3]: 0.812 µM
koff [3]: 0.072 s⁻¹
kon [3]: 88700 M⁻¹ s⁻¹
Kd [5]: 1.38 µM
koff [5]: 0.0709 s⁻¹
kon [5]: 51300 M⁻¹ s⁻¹

B20: NINA-0442.0128 (antibody, V domains shown)
VH: B1 VH with S104Q
VL: B1 VL
Kd [2]: 0.242 µM
koff [2]: 0.0471 s⁻¹
kon [2]: 194000 M⁻¹ s⁻¹

B21: TINA-0217.0128 (antibody, V domains shown)
VH: B2 VH with K12T
VL: B1 VL
notes: Monospecific IgG4PE
Kd [3]: 0.564 µM
koff [3]: 0.0574 s⁻¹
kon [3]: 102000 M⁻¹ s⁻¹

B22: TINA-0616.0128 (antibody, V domains shown)
VH: B2 VH with V5I, L108I
VL: B1 VL
notes: as for B11
Kd [5]: 0.53 µM
koff [5]: 0.0222 s⁻¹
kon [5]: 41900 M⁻¹ s⁻¹

B23: NINA-1172.0128 (antibody, V domains shown)
VH: B1 VH with E57R, S104I, S105K
VL: B1 VL
Kd [1]: 0.0764 µM
koff [1]: 0.0171 s⁻¹
kon [1]: 225000 M⁻¹ s⁻¹

B24: NINA-0438.0128 (antibody, V domains shown)
VH: B1 VH with S104L
VL: B1 VL
Kd [6]: 0.3 µM
Kd [2]: 0.293 µM
koff [2]: 0.0673 s⁻¹
kon [2]: 230000 M⁻¹ s⁻¹

B25: TINA-0203.0128 (antibody, V domains shown)
VH: B2 VH with S84I
VL: B1 VL
notes: Monospecific IgG4PE
Kd [3]: 0.88 µM
koff [3]: 0.0598 s⁻¹
kon [3]: 68000 M⁻¹ s⁻¹

B26: NINA-0456.0128 (antibody, V domains shown)
VH: B1 VH with S105L
VL: B1 VL
Kd [2]: 0.263 µM
koff [2]: 0.0396 s⁻¹
kon [2]: 151000 M⁻¹ s⁻¹

B27: TINA-0666.0128 (antibody, V domains shown)
VH: B2 VH with V5I, C107I, L108I
VL: B1 VL
notes: Monospecific IgG
Kd [5]: 0.927 µM
koff [5]: 0.0417 s⁻¹
kon [5]: 44900 M⁻¹ s⁻¹
